Results: PMC12406685, “Thiazole substitution of a labile amide bond—a new option toward antiplasmodial pantothenamide-mimics” (Antimicrobial Agents and Chemotherapy, 2025)

Experiments:
Conditions in all cases: other: compound as substrate of HsPanK3; mean ± SEM; 2c and 2e fitted with substrate inhibition equation 1
[1] = substrate: CC(C)(CO)[C@@H](O)C(=O)NCc1cnc(-c2ccccc2)s1; experiment: HsPanK kinetic assay (pyruvate kinase/lactic dehydrogenase coupled, NADH at 340 nm); assay type: biochemical, human
Procedure: (§1) The gene encoding the catalytic core domain of human PanK3 (amino acid residues 12–368) was synthesized and cloned into the pET28a(+) expression vector using the NdeI and BamHI restriction sites to produce an N-terminal His6-tagged protein (Bio Basic Inc.). The plasmid was transformed into E. coli BL21(DE3) cells, which were cultured in Terrific Broth (TB) medium containing 50 µg/mL kanamycin at 37°C. When the culture reached an optical density at 600 nm (OD600) of 0.6, protein expression was induced by adding 1.0 mM isopropyl β-D-thiogalactoside (IPTG), followed by incubation at 18°C for 17–18 h. The cells were then harvested and resuspended in lysis buffer (20 mM Tris-HCl, pH 7.5, 500 mM NaCl, 5 mM imidazole, 5% [vol/vol] glycerol) supplemented with 1 mM PMSF (phenylmethylsulfonyl fluoride) and lysozyme (5 mg/g of the cell pellet). The suspension was then sonicated on ice, and the resulting lysate was centrifuged twice at 54,000 × g for 30 min at 4°C.
(§2) The clarified supernatant was incubated with Ni-NTA resin (Cytiva) pre-equilibrated with lysis buffer containing 5 mM imidazole at 4°C. After binding, the resin was washed with lysis buffer containing 30 mM imidazole, then eluted with lysis buffer containing 250 mM imidazole. The eluted HsPanK3 protein was dialyzed against storage buffer (20 mM Tris-HCl, pH 7.5, 200 mM NaCl, 5% [vol/vol] glycerol) and concentrated. The purified protein was stored at −80°C. Protein purity was assessed using SDS-PAGE and deemed >50% (Fig. S4).
(§3) The enzyme assay was adapted from a previously described method ([103]), which links the production of ADP to the consumption of NADH through the enzymatic activities of pyruvate kinase and lactic dehydrogenase. Reactions were conducted in 96-well microtiter plates, and the decrease in NADH concentration was measured at 340 nm at 30 s intervals after incubation at 30°C. Each reaction mixture (200 µL) contained the desired compound (substrate) at variable concentrations (0–2,000 µM), ATP (1.5 mM), NADH (0.3 mM), phospho(enol)pyruvate (2.0 mM), MgCl2 (10 mM), KCl (20 mM), a commercial pyruvate kinase/lactic dehydrogenase mixture (12 units, Sigma-Aldrich), and pantothenate kinase (0.48 µM) in 50 mM Tris–HCl buffer (pH 7.6). The reaction was initiated with the addition of ATP. The kinetic parameters were determined by fitting the rate data into the Michaelis–Menten equation using GraphPad Prism 8.0 with nonlinear regressions. Data were collected from three independent experiments, each performed in triplicate to verify the trends and optimize the selected concentrations. The kinetic parameters were calculated from the most complete triplicate set of data, and errors represent SEM.

[2] = substrate: CC(C)(CO)[C@@H](O)C(=O)NCc1csc(-c2ccccc2)n1; experiment: as above; assay type: biochemical, human
Procedure: as §1, §2, §3

[3] = substrate: CC(C)(CO)[C@@H](O)C(=O)NCc1csc(Cc2ccccc2)n1; experiment: as above; assay type: biochemical, human
Procedure: as §1, §2, §3

[4] = substrate: CC(C)(CO)[C@@H](O)C(=O)NCc1nc(CCc2ccccc2)cs1; experiment: as above; assay type: biochemical, human
Procedure: as §1, §2, §3

[5] = substrate: CCCCCc1csc(CNC(=O)[C@H](O)C(C)(C)CO)n1; experiment: as above; assay type: biochemical, human
Procedure: as §1, §2, §3

[6] = substrate: CCCCc1csc(CNC(=O)[C@H](O)C(C)(C)CO)n1; experiment: as above; assay type: biochemical, human
Procedure: as §1, §2, §3

[7] = substrate: CC(C)(CO)[C@@H](O)C(=O)NCCC(=O)O; experiment: purified protein, by the assay type

B1: HsPanK3 (Homo sapiens) (protein)
chain: PWFGMDIGGTLVKLSYFEPIDITAEEEQEEVESLKSIRKYLTSNVAYGSTGIRDVHLELKDLTLFGRRGNLHFIRFPTQDLPTFIQMGRDKNFSTLQTVLCATGGGAYKFEKDFRTIGNLHLHKLDELDCLVKGLLYIDSVSFNGQAECYYFANASEPERCQKMPFNLDDPYPLLVVNIGSGVSILAVHSKDNYKRVTGTSLGGGTFLGLCSLLTGCESFEEALEMASKGDSTQADKLVRDIYGGDYERFGLPGWAVASSFGNMIYKEKRESVSKEDLARATLVTITNNIGSVARMCAVNEKINRVVFVGNFLRVNTLSMKLLAYALDYWSKGQLKALFLEHEGYFGAVGALLGLPN
notes: catalytic core domain of human PanK3 (amino acid residues 12–368); made in house; host or cells: E. coli BL21(DE3)
Km [1]: 75 ± 11 µM
kcat [1]: 0.73 ± 0.02 s⁻¹
kcat/Km [1]: 10700 ± 800 M⁻¹ s⁻¹
Km [2]: 67 ± 10 µM
kcat [2]: 0.73 ± 0.05 s⁻¹
kcat/Km [2]: 12000 ± 1000 M⁻¹ s⁻¹
Km [3]: 69 ± 6 µM
kcat [3]: 0.63 ± 0.02 s⁻¹
kcat/Km [3]: 9300 ± 500 M⁻¹ s⁻¹
Km [4]: 42 ± 4 µM
kcat [4]: 0.399 ± 0.005 s⁻¹
kcat/Km [4]: 10000 ± 1000 M⁻¹ s⁻¹
Km [5]: 65 ± 7 µM
kcat [5]: 0.61 ± 0.02 s⁻¹
kcat/Km [5]: 10200 ± 900 M⁻¹ s⁻¹
Km [6]: 100 ± 7 µM
kcat [6]: 0.64 ± 0.01 s⁻¹
kcat/Km [6]: 6600 ± 400 M⁻¹ s⁻¹
Km [7]: 24 ± 4 µM
kcat [7]: 0.64 s⁻¹
kcat/Km [7]: 30000 M⁻¹ s⁻¹
